Patent publication US20260250338A1 (Molecular Partners, published 2026)
Blank lines part the entries; values can stand above or below the binder they belong to.

Experiments:
[1] = biological target: T1, CD16aV allotype of human CD16a expressed on Jurkat-Lucia-NFAT-CD16 Reporter cells (InvivoGen) (human, UniProt P08637 17-254); assay: cell-based or functional assay
[2] = biological target: T1, CD16aV allotype of human CD16a …; assay: cell-based or functional assay; remark: listed apart in the source
[3] = biological target: T2, full length human CD16b stably expressed on transduced WT Jurkat cells (human, UniProt O75015 17-200); assay: flow cytometry on Jurkat-CD16b cells, 5-fold serial dilutions, detection with Penta-His Alexa Fluor 488
T2 construct: whole, on cells; also called CD16b expressing cells; Jurkat CD16b
T2 sequence (O75015 17-200): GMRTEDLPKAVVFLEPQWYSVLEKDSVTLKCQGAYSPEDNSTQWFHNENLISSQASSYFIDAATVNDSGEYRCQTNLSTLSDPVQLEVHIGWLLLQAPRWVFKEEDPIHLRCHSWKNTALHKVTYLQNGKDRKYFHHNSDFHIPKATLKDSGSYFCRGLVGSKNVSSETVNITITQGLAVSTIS
Description: Serial dilutions (5-fold) of the constructs were incubated 30 min at 4° C. with 50000 cells in a 96-well plate. […] Cold buffer was added, then cells were spun down prior to supernatant removal. Cells were then fixed with Cell fix buffer (BD) and signal was measured by flow cytometry.

[4] = biological target: T3, CD32a expressed on Jurkat-NFAT-CD32a reporter cells (Invivogen jktl-nfat-cd32) (UniProt P12318 34-317, limits assumed); assay: flow cytometry on Jurkat-NFAT-CD32a cells, 4-fold serial dilutions, detection with anti-DARPin 1.1.1 antibody
T3 construct: whole, on cells; also called Jurkat-Lucia NFAT-CD32a Reporter cells; Fc receptor CD32a
T3 sequence (looked up): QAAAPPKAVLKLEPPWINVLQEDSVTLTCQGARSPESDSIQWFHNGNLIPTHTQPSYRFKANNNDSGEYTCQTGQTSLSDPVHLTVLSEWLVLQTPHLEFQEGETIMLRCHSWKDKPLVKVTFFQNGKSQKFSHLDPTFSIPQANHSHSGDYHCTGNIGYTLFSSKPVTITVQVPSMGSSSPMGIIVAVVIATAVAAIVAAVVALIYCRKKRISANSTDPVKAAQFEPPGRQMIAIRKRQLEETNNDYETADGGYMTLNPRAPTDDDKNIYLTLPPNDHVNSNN
Description: Serial dilutions (4-fold) of the constructs were incubated 30 min at 4° C. with 50000 cells in a 96-well plate. Detection antibody (anti-DARPin 1.1.1 Alexa Fluor […]) was subsequently added to the wells (2 μg/ml diluted in FACS buffer) and incubated at 4° C. for 30 min. Cold buffer was added, then cells were spun down prior to supernatant removal. Cells were then fixed with Cell fix buffer (BD) and signal was measured by flow cytometry.

T1 sequence (P08637 17-254 F176V): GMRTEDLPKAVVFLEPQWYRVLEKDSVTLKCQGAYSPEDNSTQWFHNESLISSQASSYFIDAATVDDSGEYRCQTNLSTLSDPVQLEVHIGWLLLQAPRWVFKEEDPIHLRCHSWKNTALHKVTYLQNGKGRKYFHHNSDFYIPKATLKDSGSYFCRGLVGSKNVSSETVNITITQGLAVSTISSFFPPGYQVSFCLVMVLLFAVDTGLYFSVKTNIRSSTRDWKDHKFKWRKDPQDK

EC50 (pM), DDCC reporter assay (luminescence), Kasumi-1 target cells, E:T 1:1, 24 h [1]: 86.2 pM | Top (RLU), DDCC reporter assay (luminescence), Kasumi-1 target cells [1]: 26500 RLU
B1: Construct No. 20 (SEQ ID NO: 89), CD117 × CD16a, CD117 binder SEQ ID NO: 84 and DARPin #2 (designed binder)
chain: MRGSHHHHHHGSDLGQKLLKAAQYGQDDEVRILLAAGADVNAKDWAGKTPLHVAAEAGHLEIVEVLLKAGADVNAKDKAGETPLHLAAEQGHLEIVEVLLKAGADVNAQDEWGQTPADLAAYYGLEDIAEVLQKAAGSPTPTPTTPTPTPTTPTPTPTGSDLGQKLLRAAKKGQDDEVRELLKAGADVNAKDEQGWTPLHIAAWKGHLEIVEVLLKAGADVNAKDVFDWTPLHVAAHFGHLEIVEVLLKAGADVNAQDRAGETPADLAAQAGHEDIAEVLQKAA

EC50 (pM), DDCC reporter assay (luminescence), Kasumi-1 target cells, E:T 1:1, 24 h [1]: 96.1 pM | Top (RLU), DDCC reporter assay (luminescence), Kasumi-1 target cells [1]: 8470 RLU
B2: Construct No. 24 (SEQ ID NO: 93), CD117 × CD16a, CD117 binder SEQ ID NO: 88 and DARPin #2 (designed binder)
chain: MRGSHHHHHHGSDLGHKLLHAAAWGQDDEVRILLAAGADVNAKDQSGWTPLHVAAWYGHLEIVEVLLKAGADVNAKDLKGETPLHLAALVGHLEIVEVLLKAGADVNAQDIAGDTPADLAAIAGHEDIAEVLQKAAGSPTPTPTTPTPTPTTPTPTPTGSDLGQKLLRAAKKGQDDEVRELLKAGADVNAKDEQGWTPLHIAAWKGHLEIVEVLLKAGADVNAKDVFDWTPLHVAAHFGHLEIVEVLLKAGADVNAQDRAGETPADLAAQAGHEDIAEVLQKAA

EC50 (pM), ADCC reporter assay (luminescence), SKOV3 target cells, E:T 5:1, 5 h [2]: 24 pM
B3: Construct No. 10 (SEQ ID NO: 16), 2D (CD16a × HER2), DARPin #3 with C-terminal HER2 binder of SEQ ID NO: 8 (designed binder)
chain: MRGSHHHHHHGSDLGKKLLQAARAGQLDEVRELLKAGADVNAKDEQGRTPLHIAAASGHLEIVEVLLKAGADVNAKDWFGITPLHIAAWWGHLEIVEVLLKAGADVNAKDQEGRTPLHIAAAIGHLEIVEVLLKAGADVNAQDKSGKTPADLAARAGHQDIAEVLQKAAGSPTPTPTTPTPTPTTPTPTPTGSDLGKKLLEAARAGQDDEVRELLKAGADVNAKDEYGLTPLYLATAHGHLEIVEVLLKAGADVNAVDAIGFTPLHLAAFIGHLEIAEVLLKAGADVNAQDKFGKTPADIAAGAGNEDIAEVLQKAA

EC50 (pM), ADCC reporter assay (luminescence), SKOV3 target cells, E:T 5:1, 5 h [2]: 4.1 pM
B4: Construct No. 11 (SEQ ID NO: 18), 2D (CD16a × HER2), DARPin #1 with C-terminal HER2 binder of SEQ ID NO: 9 (designed binder)
chain: MRGSHHHHHHGSDLGKKLLQAARAGQLDEVRELLKAGADVNAKDWSGFTPLHIAAVQGHLEIVEVLLKAGADVNAKDHSGWTPLHVAAFSGHLEIVEVLLKAGADVNAKDATGQTPLHLAARTGHLEIVEVLLKAGADVNAQDKSGKTPADLAARAGHQDIAEVLQKAAGSPTPTPTTPTPTPTTPTPTPTGSDLGIKLLFAAAKGQDDEVRELLKAGADVNAKDFQGVTPLHIAAQSGHLEIVEVLLKAGADVNAKDVTGDTPLHLAAQHGHLEIVEVLLKAGADVNAQDERGWTPADLAADWGHEDIAEVLQKAA

EC50 (pM), DDCC reporter assay (luminescence), Kasumi-1 target cells, E:T 1:1, 24 h [1]: 25.2 pM | Top (RLU), DDCC reporter assay (luminescence), Kasumi-1 target cells [1]: 22000 RLU
B5: Construct No. 22 (SEQ ID NO: 91), CD117 × CD16a, CD117 binder SEQ ID NO: 86 and DARPin #2 (designed binder)
chain: MRGSHHHHHHGSDLGKKLLQAARAGQLDEVRELLKAGADVNAKDVYGLTPLHLAAREGHLEIVEVLLKAGADVNAKDAYGETPLHLAAEAGHLEIVEVLLKAGADVNAKDEWGETPLNVAARAGHQDIAEVLQKAAGSPTPTPTTPTPTPTTPTPTPTGSDLGQKLLRAAKKGQDDEVRELLKAGADVNAKDEQGWTPLHIAAWKGHLEIVEVLLKAGADVNAKDVFDWTPLHVAAHFGHLEIVEVLLKAGADVNAQDRAGETPADLAAQAGHEDIAEVLQKAA

binding result [3]: no binding (tested: 1000 nM) | binding result [4]: no binding (tested: 400 nM) | EC50 (pM), ADCC reporter assay (luminescence), SKOV3 target cells, E:T 5:1, 5 h [2]: 0.19 pM
B6: Construct No. 3 (SEQ ID NO: 13), 2D (CD16a × HER2), DARPin #2 with C-terminal HER2 binder of SEQ ID NO: 9 (designed binder)
chain: MRGSHHHHHHGSDLGQKLLRAAKKGQDDEVRELLKAGADVNAKDEQGWTPLHIAAWKGHLEIVEVLLKAGADVNAKDVFDWTPLHVAAHFGHLEIVEVLLKAGADVNAQDRAGETPADLAAQAGHEDIAEVLQKAAGSPTPTPTTPTPTPTTPTPTPTGSDLGIKLLFAAAKGQDDEVRELLKAGADVNAKDFQGVTPLHIAAQSGHLEIVEVLLKAGADVNAKDVTGDTPLHLAAQHGHLEIVEVLLKAGADVNAQDERGWTPADLAADWGHEDIAEVLQKAA
notes: Bispecific DARPin; also called Construct 3
